Biological target: T1, HA-tagged wild-type Ago2 (HA-Ago2Wt), in Ago2-knockout A549 and HCC1806 cells (human, UniProt Q9UKV8 1-859)
T1 construct: Argonaute-2 (Ago2), human; source: lentiviral (pLV-EF1a-HA-Ago2-Blast), Ago2-knockout A549 and HCC1806 cells, in lysate; not shown: HA, N-terminal, kept
Experiment: co-IP; Ago2-knockout A549 and HCC1806 cells expressing HA-Ago2Wt, HA-Ago2K212A or HA-Ago2K212R; IP with anti-HA, blot for endogenous CAV1; ratio pCAV1/pHA; vehicle or TM (10 µM)
Conditions: partners not purified

T1 sequence (Q9UKV8 whole entry): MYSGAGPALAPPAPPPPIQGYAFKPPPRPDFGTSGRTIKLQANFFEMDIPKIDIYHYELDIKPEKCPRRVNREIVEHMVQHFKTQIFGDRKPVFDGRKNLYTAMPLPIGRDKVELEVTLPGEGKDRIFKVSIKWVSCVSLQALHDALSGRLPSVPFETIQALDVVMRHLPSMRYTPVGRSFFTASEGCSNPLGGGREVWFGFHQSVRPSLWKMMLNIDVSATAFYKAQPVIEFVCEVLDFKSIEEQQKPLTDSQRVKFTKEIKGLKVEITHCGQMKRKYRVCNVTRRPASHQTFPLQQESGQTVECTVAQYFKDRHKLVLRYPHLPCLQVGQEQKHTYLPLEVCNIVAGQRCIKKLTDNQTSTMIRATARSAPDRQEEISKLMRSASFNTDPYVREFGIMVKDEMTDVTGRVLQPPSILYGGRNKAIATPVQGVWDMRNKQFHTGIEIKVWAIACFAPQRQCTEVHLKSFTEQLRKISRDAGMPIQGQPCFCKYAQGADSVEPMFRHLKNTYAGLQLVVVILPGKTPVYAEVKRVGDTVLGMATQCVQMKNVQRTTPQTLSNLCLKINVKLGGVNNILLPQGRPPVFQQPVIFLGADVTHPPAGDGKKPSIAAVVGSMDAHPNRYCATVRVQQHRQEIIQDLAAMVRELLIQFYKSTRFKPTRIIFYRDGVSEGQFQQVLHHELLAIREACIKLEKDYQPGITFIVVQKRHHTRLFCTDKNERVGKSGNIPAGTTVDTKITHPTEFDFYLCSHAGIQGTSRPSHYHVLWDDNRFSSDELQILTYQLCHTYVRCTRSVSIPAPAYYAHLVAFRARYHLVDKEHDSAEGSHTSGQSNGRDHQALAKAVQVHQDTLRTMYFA

B1: Caveolin-1 (CAV1), endogenous (natural protein, UniProt Q03135 1-178, looked up)
chain: MSGGKYVDSEGHLYTVPIREQGNIYKPNNKAMADELSEKQVYDAHTKEIDLVNRDPKHLNDDVVKIDFEDVIAEPEGTHSFDGIWKASFTTFTVTKYWFYRLLSALFGIPMALIWGIYFAILSFLHIWAVVPCIKSFLIEIQCISRVYSIYVHTVCDPLFEAVGKIFSNVRINLQKEI
notes: Caveolin-1 (CAV1), human; source: endogenous
  percent of pCAV1/pHA left in cells treated with TM (10 µM) against vehicle: ~49%
